B1: Tyrosine-protein phosphatase non-receptor type 5 (Mus musculus), P54830-1 (parent)
chain: MCCSERLLGLPQPVEMEAPDEAEGLPSKQKEMPPPPPPSPPSEPAQKLPPQGAGSHSLTVRSSLCLFAASQFLLACGVLWLSGHGHSWLQNTTDLISSSLTVLNHLGPVAWLGSGTWGIPSLLLVSLTVSLVIVTTLVWHLLKAPPEPPAPLPPEDRRQSVSRQPSFTYSEWMEEKVEDDFLDLDAVPETPVFDCVMDIKPETDPASLTVKSMGLQERRGSNVSLTLDMCTPGCNEEGFGYLVSPREESAHEYLLSASRVLRAEELHEKALDPFLLQAEFFEIPMNFVDPKEYDIPGLVRKNRYKTILPNPHSRVRLTSPDPEDPLSSYINANYIRGYSGEEKVYIATQGPIVSTVADFWRMVWQERTPIIVMITNIEEMNEKCTEYWPEEQVVHDGVEITVQKVIHTEDYRLRLISLRRGTEERSLKHYWFTSWPDQKTPDRAPPLLHLVREVEEAAQQEGPHCSPIIVHCSAGIGRTGCFIATSICCQQLRREGVVDILKTTCQLRQDRGGMIQTCEQYQFVHHAMSLYEKQLSLQSSE

The values below come from IntAct's records for PubMed 23932588.

In this experiment the parent is B1. The note with it: with MAPK14, Q16539-1.
MAPK14, Q16539-1, sequence (Q16539 whole entry): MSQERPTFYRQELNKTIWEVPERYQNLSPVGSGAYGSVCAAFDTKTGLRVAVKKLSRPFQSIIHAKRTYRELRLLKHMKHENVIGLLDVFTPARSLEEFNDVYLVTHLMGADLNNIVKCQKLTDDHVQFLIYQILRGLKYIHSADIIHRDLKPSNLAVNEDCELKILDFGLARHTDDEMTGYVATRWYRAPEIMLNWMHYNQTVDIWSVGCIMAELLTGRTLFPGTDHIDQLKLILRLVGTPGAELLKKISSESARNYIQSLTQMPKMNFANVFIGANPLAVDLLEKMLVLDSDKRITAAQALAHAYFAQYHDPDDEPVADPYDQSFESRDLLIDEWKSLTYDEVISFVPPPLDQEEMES
As for F281A;I307A, the “effect of a mutation on the interaction” value is recorded as “decreasing interaction strength”. Regarding F274A;F281A, the “effect of a mutation on the interaction” value is “decreasing interaction strength”.
